# Test results published in the supplement of paper PMC11246515.
# ± gives the standard deviation of the averaged measurements.
# Assay: total protein half-life in vivo (active degradation + dilution); higher = more stable protein
# [1] = E. coli NCM3722 delta-clpP delta-lon delta-hslV, growth: N-lim chemostat, doubling time 6 h
# [2] = E. coli NCM3722 delta-clpP, growth: N-lim chemostat, doubling time 6 h
# [3] = E. coli NCM3722 delta-lon, growth: N-lim chemostat, doubling time 6 h
# [4] = E. coli NCM3722 delta-smpB, growth: N-lim chemostat, doubling time 6 h
# [5] = wild type E. coli NCM3722, growth: C-lim chemostat, doubling time 6 h
# [6] = wild type E. coli NCM3722, growth: N-lim chemostat, doubling time 6 h
# [7] = wild type E. coli NCM3722, growth: N-lim chemostat, doubling time 12 h
# [8] = wild type E. coli NCM3722, growth: P-lim chemostat, doubling time 6 h
# [9] = wild type E. coli NCM3722, growth: P-lim chemostat, doubling time 12 h
# [10] = E. coli NCM3722 delta-hslV, growth: N-lim chemostat, doubling time 6 h
# [11] = wild type E. coli NCM3722, growth: C-lim chemostat, doubling time 3 h
# [12] = wild type E. coli NCM3722, growth: C-lim chemostat, doubling time 12 h
Sequence,total protein half-life in vivo [1] [h],total protein half-life in vivo [2] [h],total protein half-life in vivo [3] [h],total protein half-life in vivo [4] [h],total protein half-life in vivo [5] [h],total protein half-life in vivo [6] [h],total protein half-life in vivo [7] [h],total protein half-life in vivo [8] [h],total protein half-life in vivo [9] [h],total protein half-life in vivo [10] [h],total protein half-life in vivo [11] [h],total protein half-life in vivo [12] [h]
MRITIYTRNDCVQCHATKRAMENRGFDFEMINVDRVPEAAEALRAQGFRQLPVVIAGDLSWSGFRPDMINRLHPAPHAASA [P0AC65],2.48 ± 0.033,–,–,–,–,–,–,–,–,–,–,–
MRKFIFVLLTLLLVSPFSFAMKGIIWQPQNRDSQVTDTQWQGLMSQLRLQGFDTLVLQWTRYGDAFTQPEQRTLLFKRAAAAQQAGLKLIVGLNADPEFFMHQKQSSAALESYLNRLLAADLQQARLWSAAPGITPDGWYISAEIDDLNWRSEAARQPLLTWLNNAQRLISDVSAKPVYISSFFAGNMSPDGYRQLLEHVKATGVNVWVQDGSGVDKLTAEQRERYLQASADCQSPAPASGVVYELFVAGKGKTFTAKPKPDAEIASLLAKRSSCGKDTLYFSLRYLPVAHGILEY,5.13 ± 0.23,6.05 ± 0.4,6.25 ± 0.24,5.08 ± 1.3,6.17 ± 0.52,5.78 ± 0.16,11.8 ± 1.6,5.96 ± 0.13,12.5 ± 0.58,–,–,–
MRKIKIGLALGSGAARGWSHIGVINALKKVGIEIDIVAGCSIGSLVGAAYACDRLSALEDWVTSFSYWDVLRLMDLSWQRGGLLRGERVFNQYREIMPETEIENCSRRFAAVATNLSTGRELWFTEGDLHLAIRASCSIPGLMAPVAHNGYWLVDGAVVNPIPISLTRALGADIVIAVDLQHDAHLMQQDLLSFNVSEENSENGDSLPWHARLKERLGSITTRRAVTAPTATEIMTTSIQVLENRLKRNRMAGDPPDILIQPVCPQISTLDFHRAHAAIAAGQLAVERKMDELLPLVRTNI [P0AFR0],5 ± 0.29,4.67 ± 0.2,5.26,4.51 ± 0.14,5.25 ± 0.36,5.61 ± 0.09,8.89 ± 1.5,5.659 ± 0.02,11.7 ± 0.5,4.923 ± 0.045,2.951 ± 0.017,10.6 ± 1.2
MRKILITGGAGFIGSALVRYIINETSDAVVVVDKLTYAGNLMSLAPVAQSERFAFEKVDICDRAELARVFTEHQPDCVMHLAAESHVDRSIDGPAAFIETNIVGTYTLLEAARAYWNALTEDKKSAFRFHHISTDEVYGDLHSTDDFFTETTPYAPSSPYSASKASSDHLVRAWLRTYGLPTLITNCSNNYGPYHFPEKLIPLMILNALAGKSLPVYGNGQQIRDWLYVEDHARALYCVATTGKVGETYNIGGHNERKNLDVVETICELLEELAPNKPHGVAHYRDLITFVADRPGHDLRYAIDASKIARELGWLPQETFESGMRKTVQWYLANESWWKQVQDGSYQGERLGLKG,5.27 ± 0.23,5.27 ± 0.67,5.96 ± 0.64,4.74 ± 0.24,6.39 ± 0.12,4.95 ± 0.23,10.7 ± 2.9,6.4 ± 0.31,12.61 ± 0.0068,5.1 ± 0.12,–,11.7 ± 1.8
MRKLWNALRRPSARWSVLALVAIGIVIGIALIVLPHVGIKVTSTTEFCVSCHSMQPVYEEYKQSVHFQNASGVRAECHDCHIPPDIPGMVKRKLEASNDIYQTFIAHSIDTPEKFEAKRAELAEREWARMKENNSATCRSCHNYDAMDHAKQHPEAARQMKVAAKDNQSCIDCHKGIAHQLPDMSSGFRKQFDELRASANDSGDTLYSIDIKPIYAAKGDKEASGSLLPASEVKVLKRDGDWLQIEITGWTESAGRQRVLTQFPGKRIFVASIRGDVQQQVKTLEKTTVADTNTEWSKLQATAWMKKGDMVNDIKPIWAYADSLYNGTCNQCHGAPEIAHFDANGWIGTLNGMIGFTSLDKREERTLLKYLQMNASDTAGKAHGDKKEEK,–,–,5.27,–,–,–,9.72,–,10.5,–,–,–
MRKNTYAMRYVAGQPAERILPPGSFASIGQALPPGEPLSTEERIRILVWNIYKQQRAEWLSVLKNYGKDAHLVLLQEAQTTPELVQFATANYLAADQVPAFVLPQHPSGVMTLSAAHPVYCCPLREREPILRLAKSALVTVYPLPDTRLLMVVNIHAVNFSLGVDVYSKQLLPIGDQIAHHSGPVIMAGDFNAWSRRRMNALYRFAREMSLRQVRFTDDQRRRAFGRPLDFVFYRGLNVSEASVLVTRASDHNPLLVEFSPGKPDK [P0A8U2],–,4.41,3.2 ± 0.29,2.65 ± 0.35,2.47 ± 0.035,2.76 ± 0.092,4.14 ± 0.052,2.42 ± 0.055,3.83 ± 0.2,2.48 ± 0.64,1.62 ± 0.14,3.514 ± 0.023
MRKTVAFGFVGTVLDYAGRGSQRWSKWRPTLCLCQQESLVIDRLELLHDARSRSLFETLKRDIASVSPETEVVSVEIELHNPWDFEEVYACLHDFARGYEFQPEKEDYLIHITTGTHVAQICWFLLAEARYLPARLIQSSPPRKKEQPRGPGEVTIIDLDLSRYNAIASRFAEERQQTLDFLKSGIATRNPHFNRMIEQIEKVAIKSRAPILLNGPTGAGKSFLARRILELKQARHQFSGAFVEVNCATLRGDTAMSTLFGHVKGAFTGARESREGLLRSANGGMLFLDEIGELGADEQAMLLKAIEEKTFYPFGSDRQVSSDFQLIAGTVRDLRQLVAEGKFREDLYARINLWTFTLPGLRQRQEDIEPNLDYEVERHASLTGDSVRFNTEARRAWLAFATSPQATWRGNFRELSASVTRMATFATSGRITLDVVEDEINRLRYNWQESRPSALTALLGAEAENIDLFDRMQLEHVIAICRQAKSLSAAGRQLFDVSRQGKASVNDADRLRKYLARFGLTWEAVQDQHSSS,–,–,4.02,–,–,–,–,–,–,–,–,–
MRKYRLSEEQRAFSYQEDGTKKNVLLRQIIAISDFNDVIAGTAGGWIDRETVLAQEGNCWIYDQNAIAFGGAVISGNTRITGTSVLWGEVYATDNVWIDNSEISQGAYISDSVTIHDSLVYGQCRIFGHALIDQHSMIVAAQGLTPDHQLLLQIYDRARVSASRIVHQAQIYGDAVVRYAFIEHRAEVFDFASIEGNEENNVWLCDCAKVYGHAQVKAGIEEDAIPTIHYSSQVAEYAIVEGNCVLKHHVLVGGNAVVRGGPILLDEHVVIQGESRITGAVIIENHVELTDHAVVEAFDGDTVHVRGPKVINGEERITRTPLAGLL,–,4.51,–,2.62 ± 0.092,–,3.27,5.74,–,8.26 ± 1,3.02,2.39,6.16
MRLAPLYRNALLLTGLLLSGIAAVQAADWPRQITDSRGTHTLESQPQRIVSTSVTLTGSLLAIDAPVIASGATTPNNRVADDQGFLRQWSKVAKERKLQRLYIGEPSAEAVAAQMPDLILISATGGDSALALYDQLSTIAPTLIINYDDKSWQSLLTQLGEITGHEKQAAERIAQFDKQLAAAKEQIKLPPQPVTAIVYTAAAHSANLWTPESAQGQMLEQLGFTLAKLPAGLNASQSQGKRHDIIQLGGENLAAGLNGESLFLFAGDQKDADAIYANPLLAHLPAVQNKQVYALGTETFRLDYYSAMQVLDRLKALF [P0AEL6],3.63 ± 0.44,4.68 ± 0.25,–,5.5 ± 0.95,5.29 ± 0.068,5.62 ± 0.55,10.4 ± 3,6.51 ± 0.24,–,5.13,> 4,11.5 ± 3.5
